These results are taken from patent publication US20260027208A1 (published 2026).

Assay [1] deals with T1, KRAS G12D peptide on HLA-A*11:01 (human).
T1 peptide: VVVGADGVGK
Briefly: activation reporter or marker.

The target of assay [2] is T1, KRAS G12D peptide on HLA-A*11:01. Put plainly: CD137 by flow cytometry; transduced primary CD4+ and CD8+ T cells, TRAC/TRBC wild type; G12D peptide titrated (FIG. 3C); full-length, on cells. How it is done:
(§1) Primary CD4+ and CD8+ T cells were transduced with a KRAS-G12D-specific T cell receptor (TCR69, TCR79, TCR80, TCR81, or TCR91), and were either edited to knockout TRAC and TRBC or left with unmodified TRAC and TRBC genes, and expanded for several days. Engineered T cells were incubated with G12D peptide at decreasing concentrations and T cell responses were assessed by measuring CD137 expression.
(§2) In additional experiments, the effect of TRAC and TRBC knockout was evaluated for primary CD4+ and CD8+ T cells transduced with further KRAS-G12D-specific TCRs. The double knockout improved TCR avidity for multiple TCRs as shown in FIG. 3C (corresponding EC50 values in TABLE 2 and Cmax values in TABLE 3), FIG. 3D (corresponding EC50 values in TABLE 4), and FIG. 3E (corresponding EC50 values in TABLE 5).

The target is the same in assay [3]. Briefly: CD137 by flow cytometry; transduced primary CD4+ and CD8+ T cells, TRAC/TRBC double knockout; G12D peptide titrated (FIG. 3E); full-length, on cells. How it is done: as §1, §2
Assay [4] has the same target. Put plainly: CD137 by flow cytometry; transduced primary CD4+ and CD8+ T cells, TRAC/TRBC wild type; G12D peptide titrated (FIG. 3D); full-length, on cells. The method, then:
as §1, §2
On the technique in general: Flow cytometry measures light scatter and fluorescence of single cells or particles in a stream.

Assay [5] shares this target. Briefly: CD137 by flow cytometry; transduced primary CD4+ and CD8+ T cells, TRAC/TRBC wild type; G12D peptide titrated (FIG. 3E); full-length, on cells. How it is done:
as §1, §2

Assay [6] shares this target. Briefly: CD137 by flow cytometry; transduced primary CD4+ and CD8+ T cells, TRAC/TRBC double knockout; G12D peptide titrated (FIG. 3D); full-length, on cells. The method, then:
as §1, §2

Assay [7] shares this target. Put plainly: CD137 by flow cytometry; transduced primary CD4+ and CD8+ T cells, TRAC/TRBC double knockout; G12D peptide titrated (FIG. 3C); full-length, on cells. The method, then: as §1, §2
Assay [8] shares this target. Put plainly: CD137 by flow cytometry; transduced primary CD4+ and CD8+ T cells without knockout of TRAC and TRBC; G12D peptide titrated (FIG. 3C); full-length, on cells. How it is done: as §1, §2
Assay [9] has the same target. Briefly: killing. How it is done: Red fluorescent Hpaf-II cells, a KRAS-G12D expressing tumor cell line transduced to express HLA-A11, were cocultured at 3:1 effector:target cell ratio with TCR32-transduced CD8⁺ T cells having wild type TRAC and TRBC loci or TCR32-transduced TRAC/TRBC double knockout (dKO) CD8⁺ T cells. Total red object integrated intensity (a measure of tumor cell volume) was evaluated over time. Red fluorescence was measured by live cell imaging using a life cell analysis system, the IncuCyte S3 microscope and software package. CD8⁺ T cell cytotoxicity is indicated by a decrease in the total red target cell area per well as compared to no treatment wells. Additional tumor cells were added at 72 and 140 hours to assess TCR-mediated tumor cell lysis by transduced T cells in the presence of persistent antigen. Reductions in tumor cells were observed when co-cultured with TCR-transduced cells (FIG. 2).

B1: TCR69 (TCR, V domains shown)
Valpha: TQLLEQSPQFLSIQEGENLTVYCNSSSVFSSLQWYRQEPGEGPVLLVTVVTGGEVKKLKRLTFQFGDARKDSSLHITAAQPGDTGLYLCAGKTTDSWGKLQFGAGTQVVVTP
Vbeta: EPEVTQTPSHQVTQMGQEVILRCVPISNHLYFYWYRQILGQKVEFLVSFYNNEISEKSEIFDDQFSVERPDGSNFTLKIRSTKLEDSAMYFCASSEWAGTEAFFGQGTRLTVV
For B1, the binding result in [1] was “recognises”.

B2: TCR5 (TCR, V domains shown)
Valpha: GEDVEQSLFLSVREGDSSVINCTYTDSSSTYLYWYKQEPGAGLQLLTYIFSNMDMKQDQRLTVLLNKKDKHLSLRIADTQTGDSAIYFCAERDAGNNRKLIWGLGTSLAVNP
Vbeta: GAGVSQSPRYKVAKRGQDVALRCDPISGHVSLFWYQQALGQGPEFLTYFQNEAQLDKSGLPSDRFFAERPEGSVSTLKIQRTQQEDSAVYLCASSLEGGDTQYFGPGTRLTVL
For the molecule B2, the EC50 of peptide in [2] came out at 36.3 nM; in [3], 7.6 nM; in [4], 37.8 nM; in assay [5] it was 36.3 nM; in assay [6], 9.4 nM; in assay [7], 7.6 nM. In assay [8], this molecule had a Cmax of 23.9%.

B3: TCR80 (TCR, V domains shown)
Valpha: AQTVTQSQPEMSVQEAETVTLSCTYDTSESDYYLFWYKQPPSRQMILVIRQEAYKQQNATENRFSVNFQKAAKSFSLKISDSQLGDAAMYFCASTLSSGDKLTFGTGTRLAVRP
Vbeta: EPEVTQTPSHQVTQMGQEVILRCVPISNHLYFYWYRQILGQKVEFLVSFYNNEISEKSEIFDDQFSVERPDGSNFTLKIRSTKLEDSAMYFCASSGVDRAYGYTFGSGTRLTVV
B3: the binding result in assay [1] is reported as “recognises”.

B4: TCR81 (TCR, V domains shown)
Valpha: AQTVTQSQPEMSVQEAETVTLSCTYDTSESDYYLFWYKQPPSRQMILVIRQEAYKQQNATENRFSVNFQKAAKSFSLKISDSQLGDAAMYFCAYCNPNAGKSTFGDGTTLTVKP
Vbeta: DVKVTQSSRYLVKRTGEKVFLECVQDMDHENMFWYRQDPGLGLRLIYFSYDVKMKEKGDIPEGYSVSREKKERFSLILESASTNQTSMYLCASSFRLREGLGEQFFGPGTRLTVL
B4: in assay [1], the binding result is reported as “recognises”.

B5: TCR91 (TCR, V domains shown)
Valpha: AQKVTQAQTEISVVEKEDVTLDCVYETRDTTYYLFWYKQPPSGELVFLIRRNSFDEQNEISGRYSWNFQKSTSSFNFTITASQVVDSAVYFCALNEGGGSTLGRLYFGRGTQLTVWP
Vbeta: DAMVIQNPRYQVTQFGKPVTLSCSQTLNHNVMYWYQQKSSQAPKLLFHYYDKDFNNEADTPDNFQSRRPNTSFCFLDIRSPGLGDAAMYLCATSTGRVYQPQHFGDGTRLSIL
B5: the EC50 of peptide in assay [2] was found to be 131 nM; in [3], 36.5 nM; in assay [4], 179 nM; in assay [5] it was 131 nM; in assay [6], 14.4 nM; in assay [7], 36.5 nM. For the same molecule, the Cmax in assay [8] turned out to be 14.4%.

B6: TCR2 (TCR, V domains shown)
Valpha: AQTVTQSQPEMSVQEAETVTLSCTYDTSENNYYLFWYKQPPSRQMILVIRQEAYKQQNATENRFSVNFQKAAKSFSLKISDSQLGDTAMYFCAFMYPSQGGSEKLVFGKGMKLTVNP
Vbeta: ETGVTQSPTHLIKTRGQQVTLRCSSQSGHNTVSWYQQALGQGPQFIFQYYREEENGRGNFPPRFSGLQFPNYSSELNVNALELDDSALYLCASSSPGFRSYGYTFGSGTRLTVV
On to B6, for which the EC50 of peptide in [2] amounted to 31.6 nM; in assay [3], 10.1 nM; in assay [4], 22.2 nM; in assay [5], 31.6 nM; in [6], 7.3 nM; in assay [7], 10.1 nM. The molecule further showed a Cmax in assay [8] of 42.7%.

B7: TCR4 (TCR, V domains shown)
Valpha: QKEVEQDPGPLSVPEGAIVSLNCTYSNSAFQYFMWYRQYSRKGPELLMYTYSSGNKEDGRFTAQVDKSSKYISLFIRDSQPSDSATYLCAMGALNSGAGSYQLTFGKGTKLSVIP
Vbeta: KAGVTQTPRYLIKTRGQQVTLSCSPISGHRSVSWYQQTPGQGLQFLFEYFSETQRNKGNFPGRFSGRQFSNSRSEMNVSTLELGDSALYLCASSLSSGTGTEAFFGQGTRLTVE
For the molecule B7, the EC50 of peptide stood at 49.8 nM in assay [2]; 11.8 nM in [3]; 31.1 nM in assay [4]; 49.8 nM in assay [5]; 4.4 nM in assay [6]; 11.8 nM in assay [7]. The Cmax in assay [8] turned out to be 16%.

B8: TCR79 (TCR, V domains shown)
Valpha: QKEVEQNSGPLSVPEGAIASLNCTYSDRVSQSFFWYRQYSGKSPELIMSIYSNGDKEDGRFTAQLNKASQYVSLLIRDSQPSDSATYLCAVRWAGGTSYGKLTFGQGTILTVHP
Vbeta: DTGVSQDPRHKITKRGQNVTFRCDPISEHNRLYWYRQTLGQGPEFLTYFQNEAQLEKSRLLSDRFSAERPKGSFSTLEIQRTEQGDSAMYLCATPLGRTNEQFFGPGTRLTVL
Regarding B8, the binding result in assay [1] was “recognises”.

B9: TCR32 (TCR, V domains shown)
Valpha: AQTVTQSQPEMSVQEAETVTLSCTYDTSENNYYLFWYKQPPSRQMILVIRQEAYKQQNATENRFSVNFQKAAKSFSLKISDSQLGDTAMYFCAFMTPITQGGSEKLVFGKGTKLTVNP
Vbeta: ETGVTQSPTHLIKTRGQQVTLRCSSQSGHNTVSWYQQALGQGPQFIFQYYREEENGRGNFPPRFSGLQFPNYSSELNVNALELDDSALYLCASSDRGWNEQFFGPGTRLTVL
With B9, the binding result in assay [9] is “recognises”.
